The source of these data is patent publication US20210061907A1.

The target in assay [1] is CD19-ECD Fc fusion protein (human) (UniProt P15391). The experiment in a line: ELISA, plates coated with CD19-ECD Fc, dose series of purified kappa fusion antibody fragment, OD450, GraphPad Prism.
For assay [2], the target named is CD19 on the CD19-positive RaJi cell line (UniProt P15391). The experiment in a line: flow cytometry on the CD19-positive RaJi cell line, dose series, anti-human IgG-FITC, GraphPad Prism. In general terms: In flow cytometry, cells or beads pass a laser one at a time.

B1: H10 affinity-matured antibody fragment, kappa light chain fusion protein (scFv, V domains shown)
VH: EVQLLESGGGLVQPGGSLRLSCAASGFTFSDYYMSWVRQAPGKGLEWVSGIYYDGTNVYYADSVKGRFTISRDNSKNTLYLQMNSLRAEDTAVYYCAKGPLFCNDRTCSYYYAMDVWGQGTLVTVSS
VL: QSVLTQPPSASGTPGQRVTISCLGGYSNIGSNAVYWYQQLPGTAPKLLIYDDNHRPSGVPDRFSGSKSGTSASLAISGLRSEDEADYYCGTWDYSLSGYVLGGGTKLTVL
Usually EC50 stands for the concentration that produces a half-maximal response. As for B1, the 50% effective concentration (EC50) in assay [1] stood at 3.31 nM.

B2: D7 affinity-matured antibody fragment, kappa light chain fusion protein (scFv, V domains shown)
VH: EVQLLESGGGLVQPGGSLRLSCAASGFTFSDYYMSWVRQAPGKGLEWVSGIYYDGTAFYYADSVKGRFTISRDNSKNTLYLQMNSLRAEDTAVYYCAKGPLFCNDRTCSYYYAMDVWGQGTLVTVSS
VL: QSVLTQPPSASGTPGQRVTISCEGQPSNIGSNAVYWYQQLPGTAPKLLIYDDNHRPSGVPDRFSGSKSGTSASLAISGLRSEDEADYYCGTWDYSLSGYVLGGGTKLTVL
With B2, the EC50 in assay [1] amounted to 3.2 nM.

B3: D10 affinity-matured antibody fragment, kappa light chain fusion protein (scFv, V domains shown)
VH: EVQLLESGGGLVQPGGSLRLSCAASGFTFSDYYMSWVRQAPGKGLEWVSGIYYDGSAVYYADSVKGRFTISRDNSKNTLYLQMNSLRAEDTAVYYCAKGPLFCNDRTCSYYYAMDVWGQGTLVTVSS
VL: QSVLTQPPSASGTPGQRVTISCWGDYSNIGSNAVYWYQQLPGTAPKLLIYDDNHRPSGVPDRFSGSKSGTSASLAISGLRSEDEADYYCGTWDYSLSGYVLGGGTKLTVL
With B3, the concentration giving a half-maximal response (EC50) in assay [1] was 2.48 nM.

B4: T3C1 affinity-matured antibody fragment, kappa light chain fusion protein (scFv, V domains shown)
VH: EVQLLESGGGLVQPGGSLRLSCAASGFTFSDYYMSWVRQAPGKGLEWVSGIYYDGSASYYADSVKGRFTISRDNSKNTLYLQMNSLRAEDTAVYYCAKGPLFCNDRTCSYYYAMDVWGQGTLVTVSS
VL: QSVLTQPPSASGTPGQRVTISCSGGPSNIGSNAVYWYQQLPGTAPKLLIYDDNHRPSGVPDRFSGSKSGTSASLAISGLRSEDEADYYCGTWDYSLSGYVLGGGTKLTVL
As for B4, the half-maximal effective concentration (EC50) in assay [1] turned out to be 2.4 nM.

B5: E3 affinity-matured antibody fragment, kappa light chain fusion protein (scFv, V domains shown)
VH: EVQLLESGGGLVQPGGSLRLSCAASGFTFSDYYMSWVRQAPGKGLEWVSGIYYDGTAMYYADSVKGRFTISRDNSKNTLYLQMNSLRAEDTAVYYCAKGPLFCNDRTCSYYYAMDVWGQGTLVTVSS
VL: QSVLTQPPSASGTPGQRVTISCSGGYSNIGSNAVYWYQQLPGTAPKLLIYDDNHRPSGVPDRFSGSKSGTSASLAISGLRSEDEADYYCGTWDYSLSGYVLGGGTKLTVL
As for B5, the EC50 in assay [1] turned out to be 1.87 nM; in assay [2], 26.1 nM.

B6: 2F1 affinity-matured antibody fragment, kappa light chain fusion protein (scFv, V domains shown)
VH: EVQLLESGGGLVQPGGSLRLSCAASGFTFSDYYMSWVRQAPGKGLEWVSGIYYDGSSQGWSSSVKGRFTISRDNSKNTLYLQMNSLRAEDTAVYYCAKGPLFCNDRTCSYYYAMDVWGQGTLVTVSS
VL: QSVLTQPPSASGTPGQRVTISCYGQPSNIGSNAVYWYQQLPGTAPKLLIYDDNHRPSGVPDRFSGSKSGTSASLAISGLRSEDEADYYCGTWDYSLSGYVLGGGTKLTVL
Consider B6, for which the values for the 50% effective concentration (EC50) in assay [1] and in assay [2] were 1.6 nM and 10.5 nM, respectively.

B7: C2 affinity-matured antibody fragment, kappa light chain fusion protein (scFv, V domains shown)
VH: EVQLLESGGGLVQPGGSLRLSCAASGFTFSDYYMSWVRQAPGKGLEWVSGIYYDGTNQYYADSVKGRFTISRDNSKNTLYLQMNSLRAEDTAVYYCAKGPLFCNDRTCSYYYAMDVWGQGTLVTVSS
VL: QSVLTQPPSASGTPGQRVTISCTGGLSNIGSNAVYWYQQLPGTAPKLLIYDDNHRPSGVPDRFSGSKSGTSASLAISGLRSEDEADYYCGTWDYSLSGYVLGGGTKLTVL
For B7, the results for the EC50 in assay [1] and in assay [2] were 5.81 nM and 61.2 nM, respectively.

B8: E12 affinity-matured antibody fragment, kappa light chain fusion protein (scFv, V domains shown)
VH: EVQLLESGGGLVQPGGSLRLSCAASGFTFSDYYMSWVRQAPGKGLEWVSGIYYDSFVPYYADSVKGRFTISRDNSKNTLYLQMNSLRAEDTAVYYCAKGPLFCNDRTCSYYYAMDVWGQGTLVTVSS
VL: QSVLTQPPSASGTPGQRVTISCAGSASNIGSNAVYWYQQLPGTAPKLLIYDDNHRPSGVPDRFSGSKSGTSASLAISGLRSEDEADYYCGTWDYSLSGYVLGGGTKLTVL
The molecule B8 registered a half-maximal effective concentration (EC50) in assay [1] of 2.56 nM.

B9: T3H9 affinity-matured antibody fragment, kappa light chain fusion protein (scFv, V domains shown)
VH: EVQLLESGGGLVQPGGSLRLSCAASGFTFSDYYMSWVRQAPGKGLEWVSGIYYDASAEYYADSVKGRFTISRDNSKNTLYLQMNSLRAEDTAVYYCAKGPLFCNDRTCSYYYAMDVWGQGTLVTVSS
VL: QSVLTQPPSASGTPGQRVTISCSGMLSNIGSNAVYWYQQLPGTAPKLLIYDDNHRPSGVPDRFSGSKSGTSASLAISGLRSEDEADYYCGTWDYSLSGYVLGGGTKLTVL
Regarding B9, the EC50 in assay [1] worked out at 2.32 nM.
